From paper PMC9482650, “Quantitative fragmentomics allow affinity mapping of interactomes” (Nature Communications, 2022)

Columns and labels:
Experiment in all cases: holdup assay
Set-up in all cases: key: below the threshold = too weak to quantify, mostly under pKd 3.1 to 4
LNX1_3, Q8TBB1 = biological target: LNX1_3, Q8TBB1
DLG4_3, P78352 = biological target: DLG4_3, P78352
MAGI2_4, Q86UL8 = biological target: MAGI2_4, Q86UL8
Inadl_1, Q8NI35 = biological target: Inadl_1, Q8NI35
Inadl_5, Q8NI35 = biological target: Inadl_5, Q8NI35
DLG1_3, Q12959 = biological target: DLG1_3, Q12959
SNTB1, Q13884 = biological target: T1, SNTB1, Q13884
T1 sequence (Q13884 107-205, limits assumed, looked up): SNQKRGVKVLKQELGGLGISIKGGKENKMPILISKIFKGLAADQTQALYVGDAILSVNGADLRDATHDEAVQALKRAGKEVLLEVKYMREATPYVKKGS

FRMPD2_1, Q68DX3 = biological target: FRMPD2_1, Q68DX3
FRMPD1, Q5SYB0 = biological target: T2, FRMPD1, Q5SYB0
T2 sequence (Q5SYB0 52-145, limits assumed, looked up): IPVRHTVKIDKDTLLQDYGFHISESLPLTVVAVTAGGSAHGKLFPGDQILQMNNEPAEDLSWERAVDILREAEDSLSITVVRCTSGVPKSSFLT

GORASP1, Q9BQQ3 = biological target: GORASP1, Q9BQQ3
DVL3, Q92997 = biological target: T3, DVL3, Q92997
T3 sequence (Q92997 244-331, limits assumed, looked up): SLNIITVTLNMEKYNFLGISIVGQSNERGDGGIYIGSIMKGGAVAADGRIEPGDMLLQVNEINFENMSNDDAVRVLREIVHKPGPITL

APBA2_1, Q99767 = biological target: T4, APBA2_1, Q99767
T4 sequence (Q99767 563-664, limits assumed, looked up): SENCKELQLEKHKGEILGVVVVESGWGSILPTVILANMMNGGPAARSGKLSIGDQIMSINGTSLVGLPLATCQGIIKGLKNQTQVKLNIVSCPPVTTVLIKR

FRMPD2_2, Q68DX3 = biological target: FRMPD2_2, Q68DX3
SCRIB_2, Q14160 = biological target: SCRIB_2, Q14160
APBA1_2, Q02410 = biological target: T5, APBA1_2, Q02410
T5 sequence (Q02410 742-832, limits assumed, looked up): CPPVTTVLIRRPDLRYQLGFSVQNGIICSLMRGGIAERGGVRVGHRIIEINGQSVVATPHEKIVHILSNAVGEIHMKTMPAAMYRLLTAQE

GRIP1_7, Q9Y3R0 = biological target: T6, GRIP1_7, Q9Y3R0
T6 sequence (Q9Y3R0 999-1096, limits assumed, looked up): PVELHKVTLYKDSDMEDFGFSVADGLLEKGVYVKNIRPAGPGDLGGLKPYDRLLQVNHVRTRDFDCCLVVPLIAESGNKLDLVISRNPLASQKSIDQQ

DLG3_3, Q92796 = biological target: T7, DLG3_3, Q92796
T7 sequence (Q92796 374-475, limits assumed, looked up): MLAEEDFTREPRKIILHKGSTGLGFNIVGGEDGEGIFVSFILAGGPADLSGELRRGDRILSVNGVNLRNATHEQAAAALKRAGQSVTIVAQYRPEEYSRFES

NOS1, P29475 = biological target: NOS1, P29475
CASK, O14936 = biological target: CASK, O14936
GOPC, Q9HD26 = biological target: GOPC, Q9HD26
MPDZ_5, O75970 = biological target: T8, MPDZ_5, O75970
T8 sequence (O75970 695-796, limits assumed, looked up): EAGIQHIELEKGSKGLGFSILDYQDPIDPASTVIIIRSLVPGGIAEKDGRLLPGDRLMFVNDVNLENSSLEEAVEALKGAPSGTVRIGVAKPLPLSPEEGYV

SHANK1, Q9Y566 = biological target: T9, SHANK1, Q9Y566
T9 sequence (Q9Y566 658-767, limits assumed, looked up): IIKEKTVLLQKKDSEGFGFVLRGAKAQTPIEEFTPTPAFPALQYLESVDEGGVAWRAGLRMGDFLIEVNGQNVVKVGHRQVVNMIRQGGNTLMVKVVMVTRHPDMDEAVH

MAGI2_6, Q86UL8 = biological target: MAGI2_6, Q86UL8
PDZD7_3, Q9H5P4 = biological target: T10, PDZD7_3, Q9H5P4
T10 sequence (Q9H5P4 857-944, limits assumed, looked up): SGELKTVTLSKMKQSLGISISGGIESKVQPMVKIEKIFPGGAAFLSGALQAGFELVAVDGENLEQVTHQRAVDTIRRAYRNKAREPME

LAP2, Q96RT1 = biological target: LAP2, Q96RT1
LIN7C, Q9NUP9 = biological target: T11, LIN7C, Q9NUP9
T11 sequence (Q9NUP9 88-185, limits assumed, looked up): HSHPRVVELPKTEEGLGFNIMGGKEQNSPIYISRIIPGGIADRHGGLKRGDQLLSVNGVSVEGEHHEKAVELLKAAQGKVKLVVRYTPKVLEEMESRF

FRMPD2_3, Q68DX3 = biological target: FRMPD2_3, Q68DX3
[1] = plain residues with an end cap or a label only (N-terminal biotin on a linker: ttds)
[2] = plain residues with an end cap or a label only (N-terminal biotin on a linker: ahx)

Sequence of Inadl_5, Q8NI35 (Q8NI35 673-780): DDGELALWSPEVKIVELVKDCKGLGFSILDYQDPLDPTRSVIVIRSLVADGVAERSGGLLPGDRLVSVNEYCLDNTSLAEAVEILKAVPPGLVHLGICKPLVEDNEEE
Sequence of SCRIB_2, Q14160 (Q14160 857-960): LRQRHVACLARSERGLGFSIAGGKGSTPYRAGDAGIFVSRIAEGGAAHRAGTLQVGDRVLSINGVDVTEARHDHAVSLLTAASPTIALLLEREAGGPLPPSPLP
Sequence of LAP2, Q96RT1 (Q96RT1 other isoform, or with tags, fused parts or gaps): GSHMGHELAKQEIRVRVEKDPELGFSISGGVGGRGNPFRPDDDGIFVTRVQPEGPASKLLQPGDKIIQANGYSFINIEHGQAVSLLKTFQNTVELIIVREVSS
Sequence of FRMPD2_1, Q68DX3 (Q68DX3 770-861): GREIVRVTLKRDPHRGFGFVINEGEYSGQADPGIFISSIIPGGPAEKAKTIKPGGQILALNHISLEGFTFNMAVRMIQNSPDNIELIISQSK
Sequence of CASK, O14936 (O14936 487-570): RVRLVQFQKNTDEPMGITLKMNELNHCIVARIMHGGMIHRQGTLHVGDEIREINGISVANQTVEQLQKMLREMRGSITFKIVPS
Sequence of NOS1, P29475 (P29475 9-101): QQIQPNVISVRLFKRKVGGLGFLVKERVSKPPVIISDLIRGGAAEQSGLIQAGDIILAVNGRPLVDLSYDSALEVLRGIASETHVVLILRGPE
Sequence of DLG4_3, P78352 (P78352 306-403): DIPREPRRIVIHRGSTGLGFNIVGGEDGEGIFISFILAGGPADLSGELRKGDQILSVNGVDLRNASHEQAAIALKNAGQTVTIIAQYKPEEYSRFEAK
Sequence of LNX1_3, Q8TBB1 (Q8TBB1 500-596): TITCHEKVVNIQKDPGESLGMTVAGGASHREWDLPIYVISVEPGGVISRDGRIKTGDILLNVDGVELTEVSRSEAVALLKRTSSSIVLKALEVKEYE
Sequence of GORASP1, Q9BQQ3 (Q9BQQ3 1-208): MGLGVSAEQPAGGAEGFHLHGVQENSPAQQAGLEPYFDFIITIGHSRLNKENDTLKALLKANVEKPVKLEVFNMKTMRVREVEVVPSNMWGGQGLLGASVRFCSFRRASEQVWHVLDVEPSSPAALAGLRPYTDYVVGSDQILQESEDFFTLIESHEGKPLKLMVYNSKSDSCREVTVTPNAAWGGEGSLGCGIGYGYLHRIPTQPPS
Sequence of DLG1_3, Q12959 (Q12959 457-571): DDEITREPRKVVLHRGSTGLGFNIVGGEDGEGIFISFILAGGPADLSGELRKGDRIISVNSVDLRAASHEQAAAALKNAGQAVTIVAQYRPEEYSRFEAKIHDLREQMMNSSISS
Sequence of Inadl_1, Q8NI35 (Q8NI35 113-229): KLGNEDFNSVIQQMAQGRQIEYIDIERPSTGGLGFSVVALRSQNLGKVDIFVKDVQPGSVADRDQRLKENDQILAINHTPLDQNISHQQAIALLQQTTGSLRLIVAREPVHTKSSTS
Sequence of MAGI2_6, Q86UL8 (Q86UL8 1141-1229): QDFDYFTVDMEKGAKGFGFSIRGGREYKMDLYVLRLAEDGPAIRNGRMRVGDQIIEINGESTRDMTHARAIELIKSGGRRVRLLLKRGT
Sequence of MAGI2_4, Q86UL8 (Q86UL8 772-865): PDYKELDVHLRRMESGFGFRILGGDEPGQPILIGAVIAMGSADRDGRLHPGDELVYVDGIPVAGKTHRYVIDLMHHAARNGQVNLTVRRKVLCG
Sequence of FRMPD2_3, Q68DX3 (Q68DX3 1073-1166): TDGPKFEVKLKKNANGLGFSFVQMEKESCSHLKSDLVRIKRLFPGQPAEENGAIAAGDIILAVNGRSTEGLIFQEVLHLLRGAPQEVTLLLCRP
Sequence of FRMPD2_2, Q68DX3 (Q68DX3 944-1038): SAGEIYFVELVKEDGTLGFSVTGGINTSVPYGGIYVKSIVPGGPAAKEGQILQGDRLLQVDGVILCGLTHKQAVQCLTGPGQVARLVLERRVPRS

DKDPHSETAL [TMIGD1, Q6UXZ0]
pKd (LNX1_3, Q8TBB1; [1]): below the threshold
pKd (DLG4_3, P78352; [1]): below the threshold
pKd (MAGI2_4, Q86UL8; [1]): below the threshold
pKd (Inadl_1, Q8NI35; [1]): below the threshold
pKd (Inadl_5, Q8NI35; [1]): below the threshold
pKd (DLG1_3, Q12959; [1]): below the threshold
pKd (SNTB1, Q13884; [1]): 4.53
pKd (FRMPD2_1, Q68DX3; [1]): below the threshold
pKd (FRMPD1, Q5SYB0; [1]): below the threshold
pKd (GORASP1, Q9BQQ3; [1]): below the threshold
pKd (DVL3, Q92997; [1]): below the threshold
pKd (APBA2_1, Q99767; [1]): below the threshold
pKd (FRMPD2_2, Q68DX3; [1]): below the threshold
pKd (SCRIB_2, Q14160; [1]): 4.23
pKd (APBA1_2, Q02410; [1]): 3.65
pKd (GRIP1_7, Q9Y3R0; [1]): below the threshold
pKd (DLG3_3, Q92796; [1]): below the threshold
pKd (NOS1, P29475; [1]): 3.86
pKd (CASK, O14936; [1]): below the threshold
pKd (GOPC, Q9HD26; [1]): below the threshold
pKd (MPDZ_5, O75970; [1]): below the threshold
pKd (SHANK1, Q9Y566; [1]): 4.42
pKd (MAGI2_6, Q86UL8; [1]): 3.79
pKd (PDZD7_3, Q9H5P4; [1]): 4.07
pKd (LAP2, Q96RT1; [1]): 3.66
pKd (LIN7C, Q9NUP9; [1]): below the threshold
pKd (FRMPD2_3, Q68DX3; [1]): below the threshold

SDSSGQEYSL [KCTD3, Q9Y597]
pKd (LNX1_3, Q8TBB1; [2]): below the threshold
pKd (DLG4_3, P78352; [2]): below the threshold
pKd (MAGI2_4, Q86UL8; [2]): below the threshold
pKd (Inadl_1, Q8NI35; [2]): below the threshold
pKd (Inadl_5, Q8NI35; [2]): below the threshold
pKd (DLG1_3, Q12959; [2]): below the threshold
pKd (SNTB1, Q13884; [2]): below the threshold
pKd (FRMPD2_1, Q68DX3; [2]): below the threshold
pKd (FRMPD1, Q5SYB0; [2]): below the threshold
pKd (GORASP1, Q9BQQ3; [2]): below the threshold
pKd (DVL3, Q92997; [2]): below the threshold
pKd (APBA2_1, Q99767; [2]): below the threshold
pKd (FRMPD2_2, Q68DX3; [2]): below the threshold
pKd (SCRIB_2, Q14160; [2]): below the threshold
pKd (APBA1_2, Q02410; [2]): 3.65
pKd (GRIP1_7, Q9Y3R0; [2]): below the threshold
pKd (DLG3_3, Q92796; [2]): below the threshold
pKd (NOS1, P29475; [2]): 3.61
pKd (CASK, O14936; [2]): below the threshold
pKd (GOPC, Q9HD26; [2]): below the threshold
pKd (MPDZ_5, O75970; [2]): below the threshold
pKd (SHANK1, Q9Y566; [2]): below the threshold
pKd (MAGI2_6, Q86UL8; [2]): below the threshold
pKd (PDZD7_3, Q9H5P4; [2]): below the threshold
pKd (LAP2, Q96RT1; [2]): below the threshold
pKd (LIN7C, Q9NUP9; [2]): below the threshold
pKd (FRMPD2_3, Q68DX3; [2]): below the threshold

KKYVDAETSL [SLC4A7, Q9Y6M7]
pKd (LNX1_3, Q8TBB1; [1]): below the threshold
pKd (DLG4_3, P78352; [1]): 3.59
pKd (MAGI2_4, Q86UL8; [1]): below the threshold
pKd (Inadl_1, Q8NI35; [1]): 3.55
pKd (Inadl_5, Q8NI35; [1]): below the threshold
pKd (DLG1_3, Q12959; [1]): 3.75
pKd (SNTB1, Q13884; [1]): 4.46
pKd (FRMPD2_1, Q68DX3; [1]): below the threshold
pKd (FRMPD1, Q5SYB0; [1]): below the threshold
pKd (GORASP1, Q9BQQ3; [1]): below the threshold
pKd (DVL3, Q92997; [1]): below the threshold
pKd (APBA2_1, Q99767; [1]): below the threshold
pKd (FRMPD2_2, Q68DX3; [1]): below the threshold
pKd (SCRIB_2, Q14160; [1]): 3.77
pKd (APBA1_2, Q02410; [1]): 3.73
pKd (GRIP1_7, Q9Y3R0; [1]): below the threshold
pKd (DLG3_3, Q92796; [1]): 3.79
pKd (NOS1, P29475; [1]): 3.58
pKd (CASK, O14936; [1]): below the threshold
pKd (GOPC, Q9HD26; [1]): 4.09
pKd (MPDZ_5, O75970; [1]): below the threshold
pKd (SHANK1, Q9Y566; [1]): 4.67
pKd (MAGI2_6, Q86UL8; [1]): 3.68
pKd (PDZD7_3, Q9H5P4; [1]): 3.77
pKd (LAP2, Q96RT1; [1]): below the threshold
pKd (LIN7C, Q9NUP9; [1]): 3.81
pKd (FRMPD2_3, Q68DX3; [1]): below the threshold

ESLLLGPSNF [SHROOM4, Q9ULL8]
pKd (LNX1_3, Q8TBB1; [2]): below the threshold
pKd (DLG4_3, P78352; [2]): below the threshold
pKd (MAGI2_4, Q86UL8; [2]): below the threshold
pKd (Inadl_1, Q8NI35; [2]): below the threshold
pKd (Inadl_5, Q8NI35; [2]): below the threshold
pKd (DLG1_3, Q12959; [2]): below the threshold
pKd (SNTB1, Q13884; [2]): below the threshold
pKd (FRMPD2_1, Q68DX3; [2]): below the threshold
pKd (FRMPD1, Q5SYB0; [2]): below the threshold
pKd (GORASP1, Q9BQQ3; [2]): below the threshold
pKd (DVL3, Q92997; [2]): below the threshold
pKd (APBA2_1, Q99767; [2]): below the threshold
pKd (FRMPD2_2, Q68DX3; [2]): below the threshold
pKd (SCRIB_2, Q14160; [2]): below the threshold
pKd (APBA1_2, Q02410; [2]): below the threshold
pKd (GRIP1_7, Q9Y3R0; [2]): below the threshold
pKd (DLG3_3, Q92796; [2]): below the threshold
pKd (NOS1, P29475; [2]): below the threshold
pKd (CASK, O14936; [2]): below the threshold
pKd (GOPC, Q9HD26; [2]): below the threshold
pKd (MPDZ_5, O75970; [2]): below the threshold
pKd (SHANK1, Q9Y566; [2]): 3.53
pKd (MAGI2_6, Q86UL8; [2]): below the threshold
pKd (PDZD7_3, Q9H5P4; [2]): below the threshold
pKd (LAP2, Q96RT1; [2]): below the threshold
pKd (LIN7C, Q9NUP9; [2]): below the threshold
pKd (FRMPD2_3, Q68DX3; [2]): below the threshold
